Experiment [1] has as its target T1, recombinant human CDH3 [EC2-EC3] (human, UniProt P22223 216-440, limits assumed).
T1 construct: no separate entry is named for EC3; also called HuCDH3_EC2-EC3; EC2-EC3 peptide
In words: SPR (ProteOn XPR36), bispecific captured on protein A/G, CDH3 EC2-EC3 as analyte.

Experiment [2] deals with T2, recombinant human CDH3, full-length (human, UniProt P22223 108-654, limits assumed).
T2 construct: also called HuCDH3 full-length; human full-length CDH3
In words: SPR (ProteOn XPR36), bispecific captured on protein A/G, CDH3 as analyte, 1:1 Langmuir fit.
Protocol: (§1) The binding affinity of purified CDH3/TRAILR2 bispecific constructs for recombinant human CDH3 (either full-length, EC1-EC2 or EC2-EC3) was determined by Surface Plasmon Resonance (SPR), using a ProteOn XPR36 instrument (Bio-Rad). The running buffer and all dilutions (except where stated) were done in PBS-TEDTA. The GLM sensor chip (Bio-Rad) was normalized and pre-conditioned as per the manufacturers recommendations. The sensor chip was activated with equal mixture of EDC/s-NHS in the horizontal direction for 300 sec at a flow rate of 30 μl/min and immobilized with protein A/G (60 μg/ml in 10 mM acetate pH 4.5) in the horizontal direction for 300 sec at a flowrate of 30 μl/min resulting in 5000 RU of protein A/G on the surface. The sensor chip was deactivated with 1 M ethanolamine HCl in the horizontal direction for 300 sec at a flowrate of 30 μl/min.
(§2) For binding kinetic determination to CDH3, bispecific molecules were captured individually on the protein A/G surface vertically for 150 sec at a flowrate of 30 μl/min. The baseline was stabilized by injecting PBS-T-EDTA for 60 sec at a flowrate of 100 μl/min horizontally. The analyte (human full-length CDH3, CDH3 [EC1-EC2] or CDH3 [EC2-EC3]) was injected horizontally over the captured antibody for 300 sec at a flowrate of 30 μl/min and a dissociation for 1200 sec. The concentration of the analytes injected was 200 nM for the full-length CDH3 and 500 nM for EC1-EC2 and EC2-EC3.

Experiment [3] addresses T3, recombinant human CDH3 [EC1-EC2] (human, UniProt P22223 108-328, limits assumed).
T3 construct: also called HuCDH3 EC1-EC2
The experiment is described as above.
Protocol: as §1, §2

Numbering of substitutions follows the chain as printed.

B1: bispecific binding molecule CDH3/TRAILR2v2 (bispecific antibody, human IgG1, kappa, L234A L235A)
heavy: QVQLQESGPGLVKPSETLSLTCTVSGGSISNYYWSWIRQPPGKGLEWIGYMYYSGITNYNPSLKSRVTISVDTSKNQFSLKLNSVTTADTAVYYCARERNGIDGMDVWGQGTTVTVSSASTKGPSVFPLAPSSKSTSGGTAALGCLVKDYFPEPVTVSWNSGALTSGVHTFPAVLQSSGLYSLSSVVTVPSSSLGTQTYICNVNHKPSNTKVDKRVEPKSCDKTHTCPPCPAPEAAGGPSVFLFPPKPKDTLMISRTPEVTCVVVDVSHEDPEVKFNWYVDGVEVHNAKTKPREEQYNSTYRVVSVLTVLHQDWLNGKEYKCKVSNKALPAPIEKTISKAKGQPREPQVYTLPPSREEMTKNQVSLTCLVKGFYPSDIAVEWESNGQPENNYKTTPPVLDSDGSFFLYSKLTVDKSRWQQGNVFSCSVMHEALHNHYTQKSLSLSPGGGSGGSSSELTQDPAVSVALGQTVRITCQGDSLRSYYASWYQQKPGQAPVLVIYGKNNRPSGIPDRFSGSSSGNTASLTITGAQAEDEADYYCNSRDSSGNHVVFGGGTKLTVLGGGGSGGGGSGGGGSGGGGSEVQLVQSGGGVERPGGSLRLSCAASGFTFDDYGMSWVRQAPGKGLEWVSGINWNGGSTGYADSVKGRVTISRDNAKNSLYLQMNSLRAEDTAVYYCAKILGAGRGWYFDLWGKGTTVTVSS
light: DIVMTQSPLSLPVTPGEPASISCRSSQSLLHSYGYNYLDWYLQKPGQSPQLLIYLGSNRASGVPDRFSGSGSGTDFTLKISRVEAEDFGIYYCMQALQTPITFGQGTRLEIKRTVAAPSVFIFPPSDEQLKSGTASVVCLLNNFYPREAKVQWKVDNALQSGNSQESVTEQDSKDSTYSLSSTLTLSKADYEKHKVYACEVTHQGLSSPVTKSFNRGEC
notes: also called CDH3/TR2v2
As usually defined, the Kd is the free concentration of one partner at which half of the binding sites on the other are occupied at equilibrium, for simple one-to-one binding. With B1, the binding result in experiment [1] is reported as “no binding (tested: 500 nM analyte)”. Further, the Kd in experiment [2] stood at 9.93 nM; in experiment [3], 11.4 nM.

B2: bispecific binding molecule CDH3/TRAILR2v3 (bispecific antibody, human IgG1, kappa, L234A L235A)
heavy: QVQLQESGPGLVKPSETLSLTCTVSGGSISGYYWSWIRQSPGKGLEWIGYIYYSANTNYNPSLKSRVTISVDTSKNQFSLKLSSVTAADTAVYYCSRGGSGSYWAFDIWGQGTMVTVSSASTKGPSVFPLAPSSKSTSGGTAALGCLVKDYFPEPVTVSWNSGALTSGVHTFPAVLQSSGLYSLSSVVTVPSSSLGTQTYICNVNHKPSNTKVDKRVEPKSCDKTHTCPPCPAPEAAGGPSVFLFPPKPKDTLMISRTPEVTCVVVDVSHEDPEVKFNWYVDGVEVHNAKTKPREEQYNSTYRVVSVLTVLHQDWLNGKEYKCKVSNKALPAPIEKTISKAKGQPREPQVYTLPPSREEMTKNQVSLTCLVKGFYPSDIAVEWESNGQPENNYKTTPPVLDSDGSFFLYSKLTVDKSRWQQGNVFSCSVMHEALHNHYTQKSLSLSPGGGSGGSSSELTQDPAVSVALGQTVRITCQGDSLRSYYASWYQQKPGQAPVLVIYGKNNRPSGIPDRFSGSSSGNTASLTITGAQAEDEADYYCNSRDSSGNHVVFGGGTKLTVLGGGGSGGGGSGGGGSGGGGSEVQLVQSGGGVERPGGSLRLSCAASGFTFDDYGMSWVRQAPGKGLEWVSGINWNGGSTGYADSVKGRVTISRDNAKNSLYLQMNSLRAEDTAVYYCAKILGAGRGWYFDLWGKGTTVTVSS
light: B1 light with L30M, H31Y, F88V, I101P, R108K, L109V
notes: also called CDH3/TR2v3
Regarding B2, the binding result in experiment [1] is on record as “no binding (tested: 500 nM analyte)”. The Kd in experiment [2] is 1.08 nM; in experiment [3] it was 0.85 nM.

For the origin of these results see patent publication US20240052065A1 (Boehringer Ingelheim, published 2024).
